Laboratory results taken from article PMC11533912 (Journal of Nuclear Medicine, 2024).

How the values were obtained:
[1] = Radio-HPLC stability/oxidation of drug product with and without excipients; assay type: physicochemical
Description: DOTAM-GRPR1 (C77H119N23O17, Fig. 1) was manufactured by Macrocyclics using Fmoc solid-phase peptide synthesis. The peptide was isolated via reverse-phase high-performance liquid chromatography. Chelation was achieved by adding ^212Pb in ammonium acetate (Sigma-Aldrich) to DOTAM-GRPR1 alone or in the presence of 5% ethanol (Spectrum Chemical), up to 30 mM ascorbic acid (Honeywell), and 0.02% polysorbate 80 (J.T. Baker). Experiments were conducted for 10 min at either room temperature or 50°C.
Fractions were collected from the column every 6–10 s for up to 10 min and then analyzed for radiometric detection using an automatic γ-counter (Perkin Elmer Wizard^2 2470).
FIGURE 4. Radio–high-performance liquid chromatography showing optimized formulation conditions compared with no excipients added to chelation reaction. When chelation occurs with just ^212Pb and peptide, oxidation is visible at time of 0 h with percent main peak of 91% (A), which becomes unquantifiable at time of 24 h (B). However, with addition of ethanol, ascorbic acid, and polysorbate 80, percent main peak is 96% at time of 0 h (C) and remains high at 94% after 24 h (D). CPM = counts per minute; N/A = not applicable; T = time. […]

[2] = in vivo

CC(C)C[C@H](NC(=O)C[C@H](O)[C@H](CC(C)C)NC(=O)[C@H](Cc1c[nH]cn1)NC(=O)CNC(=O)[C@@H](NC(=O)[C@H](C)NC(=O)[C@H](Cc1c[nH]c2ccccc12)NC(=O)[C@H](CCC(N)=O)NC(=O)[C@@H](Cc1ccccc1)NC(=O)CCNC(=O)CCNC(=O)CN1CCN(CC(N)=O)CCN(CC(N)=O)CCN(CC(N)=O)CC1)C(C)C)C(N)=O [[^212Pb]Pb-DOTAM-GRPR1, metal not drawn]
Stability in optimized chelation formulation [1]: increased the stability of the drug well beyond 24 h | Effect of renal blockers on kidney retention [2]: neither agent reduced the kidney retention
